# Results published in IntAct's records for PubMed 22291198.
# B1: Protein GLUTAMINE DUMPER 1 (Arabidopsis thaliana (Mouse-ear cress)), O81775 (parent)
# chain: MRPLSVQSKFEDVATSTSVNHHGVTPQSPWHSPVPYLFGGLAAMLGLIAFALLILACSYWRLSSSGEEDGQNVDEEKESRSGDKAANGAYEEKFLVIMAGEDLPRYLATPAMKKCTCGGHEGKMVISQEESVAKEEEKMREGEEEKVKDTGETTTTSH
# partner: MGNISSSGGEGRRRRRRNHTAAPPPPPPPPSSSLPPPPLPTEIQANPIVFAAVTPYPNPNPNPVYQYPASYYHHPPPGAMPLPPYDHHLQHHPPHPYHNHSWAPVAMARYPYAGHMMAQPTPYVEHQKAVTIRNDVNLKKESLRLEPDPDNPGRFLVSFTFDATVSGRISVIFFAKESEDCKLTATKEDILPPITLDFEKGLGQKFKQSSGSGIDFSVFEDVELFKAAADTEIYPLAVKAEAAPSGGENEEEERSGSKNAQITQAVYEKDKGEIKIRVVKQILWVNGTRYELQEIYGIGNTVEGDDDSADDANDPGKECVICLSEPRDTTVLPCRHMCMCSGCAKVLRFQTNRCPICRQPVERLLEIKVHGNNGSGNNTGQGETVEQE
# B2: Protein GLUTAMINE DUMPER 1 (Arabidopsis thaliana (Mouse-ear cress)), O81775 (parent)
# chain: B1 chain
# partner: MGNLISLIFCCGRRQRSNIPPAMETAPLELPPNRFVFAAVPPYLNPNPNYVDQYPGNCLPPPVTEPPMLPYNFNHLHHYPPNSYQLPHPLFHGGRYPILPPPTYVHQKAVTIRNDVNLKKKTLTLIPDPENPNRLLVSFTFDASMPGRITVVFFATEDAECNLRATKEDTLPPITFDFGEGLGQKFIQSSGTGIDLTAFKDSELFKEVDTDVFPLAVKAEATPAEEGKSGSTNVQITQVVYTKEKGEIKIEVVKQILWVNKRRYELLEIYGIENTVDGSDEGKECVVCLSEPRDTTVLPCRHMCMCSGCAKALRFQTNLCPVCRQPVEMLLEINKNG
# B3: Probable E3 ubiquitin-protein ligase LOG2 (Arabidopsis thaliana (Mouse-ear cress)), Q9S752 (parent)
# chain: B1 partner
# partner: B1 chain
# Variants of: B1
# Settings: with lofg2_arath LOG2, Q9S752
row,effect of a mutation on the interaction,Variant
1,disrupting interaction,MRPLSVQSKFEDVATSTSVNHHGVTPQSPWHSPVPYLFGGLAAMLGLIAFALLILACSYWRLSSSGEEDGQNVDEEKESRSGDKAANGAYEEKFLVIMAREDLPRYLATPAMKKCTCGGHEGKMVISQEESVAKEEEKMREGEEEKVKDTGETTTTSH [G100R]

# Variants of: B2
# Settings: with lul1_arath LUL1, Q9LYW5
row,effect of a mutation on the interaction,Variant
1,disrupting interaction,MRPLSVQSKFEDVATSTSVNHHGVTPQSPWHSPVPYLFGGLAAMLGLIAFALLILACSYWRLSSSGEEDGQNVDEEKESRSGDKAANGAYEEKFLVIMAREDLPRYLATPAMKKCTCGGHEGKMVISQEESVAKEEEKMREGEEEKVKDTGETTTTSH [G100R]

# Variants of: B3
# Settings: with gdu1_arath GDU1, O81775
row,effect of a mutation on the interaction,Variant
1,decreasing interaction,MANISSSGGEGRRRRRRNHTAAPPPPPPPPSSSLPPPPLPTEIQANPIVFAAVTPYPNPNPNPVYQYPASYYHHPPPGAMPLPPYDHHLQHHPPHPYHNHSWAPVAMARYPYAGHMMAQPTPYVEHQKAVTIRNDVNLKKESLRLEPDPDNPGRFLVSFTFDATVSGRISVIFFAKESEDCKLTATKEDILPPITLDFEKGLGQKFKQSSGSGIDFSVFEDVELFKAAADTEIYPLAVKAEAAPSGGENEEEERSGSKNAQITQAVYEKDKGEIKIRVVKQILWVNGTRYELQEIYGIGNTVEGDDDSADDANDPGKECVICLSEPRDTTVLPCRHMCMCSGCAKVLRFQTNRAPIARQPVERLLEIKVHGNNGSGNNTGQGETVEQE [G2A;C354A;C357A]
